Among the data in patent US20250042994A1 are Proportion of chimeric antibody positive cells to B cells (%) values, retold here.

The test concerns the target cynomolgus monkey CD19 on peripheral blood B cells (cynomolgus monkey (Macaca fascicularis)). Kind of test: FACS, cynomolgus PBMC, CD20+ B cells.

B1: F3.23.10 (antibody, human IgG1, V domains shown)
VH: EFQLQQSGPELVKPGASVKISCKASDYSFTDYNMNWVKQSNGASLEWIGIINPNFGSTSYNQKFKGKATLTVDQSSSTAFMQLNSLTSEDSAVYYCARSEYYGSSGFAYWGQGTLVTVSA
VL: DVVVTQTPLSLPVSFGDQVSISCRSSQSLVNSYGNTYLSWYLHKPGQSPQLLIYGISNRFSGVPDRFSGSGSGTDFTLKITTIKPEDLGMYYCLQGTHQPWTFGGGTKLEIK
Regarding B1, the Proportion of chimeric antibody positive cells to B cells (%) at 1 nM stood at 2%, the Proportion of chimeric antibody positive cells to B cells (%) at 10 nM came to 1% and the Proportion of chimeric antibody positive cells to B cells (%) at 100 nM was 12%.

B2: F4.180.1 (antibody, human IgG1, V domains shown)
VH: EVQLQQSAPELVKPGASVKMSCKTSGYTFTENIIHWVKQTHGKSLEWIGGINPDNGGTSYHQKFKGRTTLTIDKSSSTAYMELRSLTSDDSAVFFCARQAPLYWYFDIWGAGTTVTVSS
VL: DIVLTQSPASLAVSLGQRATISCRASESVDSYGNSLMHWFQQKPGQPPRLLIYRASNLESGIPARFSGSGSRTDFTLTITPVEADDVATYYCQQSNEDPWTFGGGTKLEIK
For B2, the Proportion of chimeric antibody positive cells to B cells (%) at 1 nM is 2%, the Proportion of chimeric antibody positive cells to B cells (%) at 10 nM worked out at 3% and the Proportion of chimeric antibody positive cells to B cells (%) at 100 nM worked out at 9%.
